From patent US20230082465A1 (published 2023) come the findings set out here.

Broadly, the Kd is the free concentration of one partner at which half of the binding sites on the other are occupied at equilibrium, for simple one-to-one binding. Read a high Kd as weaker binding.

One experiment concerns the target T1, Fibrinogen Fragment D (human, UniProt P02671 124-216; P02675 164-491; P02679 89-437).
T1 chain 1: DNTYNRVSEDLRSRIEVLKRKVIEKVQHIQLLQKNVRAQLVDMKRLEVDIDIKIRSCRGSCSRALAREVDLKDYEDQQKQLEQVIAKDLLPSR
T1 chain 2: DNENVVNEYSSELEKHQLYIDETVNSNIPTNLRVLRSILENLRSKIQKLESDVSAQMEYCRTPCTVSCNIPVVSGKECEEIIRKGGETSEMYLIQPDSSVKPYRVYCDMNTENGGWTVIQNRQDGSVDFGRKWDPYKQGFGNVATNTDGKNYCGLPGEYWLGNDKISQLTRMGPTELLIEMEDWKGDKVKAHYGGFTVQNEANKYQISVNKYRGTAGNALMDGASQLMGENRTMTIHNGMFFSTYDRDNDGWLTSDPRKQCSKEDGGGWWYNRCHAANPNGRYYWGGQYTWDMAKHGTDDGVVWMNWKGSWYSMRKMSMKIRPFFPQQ
T1 chain 3: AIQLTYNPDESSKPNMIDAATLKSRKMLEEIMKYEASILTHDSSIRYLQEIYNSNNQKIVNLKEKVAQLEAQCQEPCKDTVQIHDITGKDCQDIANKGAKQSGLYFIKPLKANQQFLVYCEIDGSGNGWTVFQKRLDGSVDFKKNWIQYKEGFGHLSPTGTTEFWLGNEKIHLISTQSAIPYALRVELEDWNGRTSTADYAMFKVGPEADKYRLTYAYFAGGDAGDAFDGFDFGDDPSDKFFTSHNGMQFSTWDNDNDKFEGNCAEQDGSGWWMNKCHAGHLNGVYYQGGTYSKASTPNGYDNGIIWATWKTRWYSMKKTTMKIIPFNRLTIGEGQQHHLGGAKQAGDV
The experiment can be described thus: BLI.

The target of another experiment is T2, Fragment DD from fibrin (human, UniProt P02671 124-216; P02675 164-491; P02679 89-437).
T2 chain 1: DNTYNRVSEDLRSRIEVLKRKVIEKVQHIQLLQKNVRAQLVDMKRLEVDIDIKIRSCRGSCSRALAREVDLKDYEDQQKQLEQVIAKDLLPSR
T2 chain 2: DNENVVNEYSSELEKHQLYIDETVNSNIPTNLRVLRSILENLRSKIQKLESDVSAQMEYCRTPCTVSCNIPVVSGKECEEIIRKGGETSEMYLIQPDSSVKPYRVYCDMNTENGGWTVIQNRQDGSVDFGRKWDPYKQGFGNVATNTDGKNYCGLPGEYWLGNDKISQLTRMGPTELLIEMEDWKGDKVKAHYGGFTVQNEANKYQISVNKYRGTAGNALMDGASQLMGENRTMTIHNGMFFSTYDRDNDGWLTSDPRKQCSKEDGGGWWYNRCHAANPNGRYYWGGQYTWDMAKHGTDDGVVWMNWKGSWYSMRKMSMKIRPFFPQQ
T2 chain 3: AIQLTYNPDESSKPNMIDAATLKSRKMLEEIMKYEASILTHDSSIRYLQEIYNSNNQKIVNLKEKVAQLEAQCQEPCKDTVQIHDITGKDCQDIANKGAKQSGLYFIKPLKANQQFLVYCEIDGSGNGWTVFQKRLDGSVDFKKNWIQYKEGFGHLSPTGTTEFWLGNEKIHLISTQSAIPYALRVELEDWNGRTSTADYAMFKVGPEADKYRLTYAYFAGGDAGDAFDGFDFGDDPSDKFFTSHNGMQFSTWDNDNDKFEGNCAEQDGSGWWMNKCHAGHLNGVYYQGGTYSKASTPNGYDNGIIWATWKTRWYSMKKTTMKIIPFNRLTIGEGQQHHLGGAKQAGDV
The experiment can be described thus: BLI.

B1: recombinant antibody #12 (antibody, V domains shown)
VH: QVQLQQPGAEVVRPGASVKLSCKASGYSFTSYWIHWLKQGPHQGLEWIGRIDPDDSETHYNQKFKDKALLTVDKSSSTAYMQLRSLTSEDSAVYYCARTNWDAWFAYWGQGTLVTVSA
VL: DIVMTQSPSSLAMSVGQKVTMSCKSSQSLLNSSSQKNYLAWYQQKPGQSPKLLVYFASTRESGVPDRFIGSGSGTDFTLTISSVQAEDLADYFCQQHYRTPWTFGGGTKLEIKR
Consider B1, for which the Kd in the experiment with Fibrinogen Fragment D amounted to 36.8 nM; with Fragment DD from fibrin, 0.417 nM.
